Experimental data taken from US11529390B2, “PCSK9 inhibitory polypolypeptides and methods of use” (INSTITUT DE CARDIOLOGIE DE MONTREAL, priority 2015, dated 2022).
Like-named read-outs stand apart in the source and are kept apart here. Ends that are not written are not given here. Peptide text beside a SMILES is read from it. * marks the point of attachment. Cbz = O=C(OCc1ccccc1)*

Legend:
[1] = tested on: PCSK9-induce degradation of LDLR; test: PCSK9-induced LDLR-EGFP degradation in GRP94 knockdown HEK293 cells with proteasome inhibitor; type: cell-based, human; conditions: 5 μM, HEK293, overnight
Protocol: FIG. 4: Knockdown of GRP94 increases LDLR degradation by PCSK9. At day 0, HEK293 cells were transfected either with a non-targeting siRNA (−) or with siRNAs against GRP94 (+). At day 1, cells were transfected with an empty vector (−) or with plasmids encoding for LDLR-EGFP (SEQ. ID. NO. 69) alone or in combination with PCSK9-mCherry (SEQ. ID. NO. 70). At day 2, cells were washed and incubated overnight with DMSO (−) or 5 μM MG132 overnight in complete media. (a) Total LDLR-EGFP, PCSK9-mCherry, GRP94 and β-actin protein levels were analyzed by immune-blotting in cell lysates as indicated. (b) LDLR-GFP and PCSK9-mCherry were visualized in live cells by confocal microscopy as conditions described above. Data are representative of at least three independent experiments.
To decipher the role of GRP94 on PCSK9, we took advantage of HEK293 cells, as they are easily transfectable in addition to be PCSK9-negative. (Seidah et al., 2003) Cells were transfected with either non-targeting siRNA (−) or with siRNAs against human GRP94 (+) and 24 h later without (−) or plasmids encoding for fluorescent PCSK9-mCherry or LDLR-EGFP (FIG. 4). Twenty-hours post cDNA transfections, cells were incubated either with vehicle (DMSO) or 5 μM MG132, a proteasome inhibitor.

[2] = target: PCSK9 binding to the LDLR EGFA domain (Homo sapiens, UniProt Q8NBP7); test: In vitro PCSK9-LDLR(EGFA) competitive assay, plate coated with LDLR-EGFA domain; conditions: 100 or 10 μM peptide, 100 ng wild-type human His-tagged PCSK9, pH6.1, 2 h
Protocol: SEQ ID. NO. 4 peptide was dissolved to 10 mM (working dilution) in DMEM media (Wisent Cat. #319-005-CL). In a total of 100 μl reaction buffer (HEPES buffer containing NaCl, CaCl2), BSA and proclin 300, pH6.1), SEQ ID. NO. 4 were added to a final concentration of 100 or 10 μM together with 100 ng wild-type human recombinant His-tagged PCSK9. Reaction buffer was added to 96 wells coated with recombinant LDLR-EGFA domain (involved in PCSK9-LDLR interaction) and incubated at room temperature for 2 h on an orbital microplate shaker (300 rpm). Following incubation, wells were washed 4 times with wash buffer and biotinylated anti-His-tag monoclonal antibody was added into each well and incubated for 1 h at room temperature. Following incubation wells were washed 4 times, and HRP-conjugated streptatvidin was added to each well and incubated for 20 min. Following 4 washes, 100 μl substrate reagent (TMB, tetra-methylbenzidine) were added for 15 min to each wells and enzymatic reaction stopped by adding 100 μl stop solution (1N […]). For each well, absorbance at 450 nm and 540 nm was measure and relative PCSK9 binding to LDLR-EGFA was determined according to a standard curve (100 ng to 1.56 ng). Inhibitory activities of SEQ ID. […]

[3] = tested on: LDLR degradation induced by overexpression of PCSK9; test: LDLR degradation after co-expression with PCSK9-V5 (intracellular pathway), immunoblot; type: cell-based, human
Protocol: FIG. 7: SEQ ID NO. 6 prevents PCSK9-induced LDLR degradation. (a) Left; Coomassie staining of purified recombinant SEQ ID NO. 6 and PCSK9 separated by SDS-PAGE is shown. Right; HepG2 cells were incubated in DMEM without or with 0, 25, 100 or 250 nM SEQ ID NO. 6 alone or in presence of recombinant PCSK9. (b) HepG2 cells were transfected without (−) or with PCSK9-V5 in absence (−) or presence SEQ ID NO. 66 or SEQ ID NO. 46. Total LDLR, PCSK9, SEQ ID NO. 66, SEQ ID NO. 46 and β-actin protein levels were analyzed by immunoblotting in cell lysates and conditioned media as indicated. Data are representative of at least three independent experiments.
We next tested whether SEQ ID. NO. 6 could alter the capacity of PCSK9 to induce LDLR degradation. HepG2 cells were incubated overnight with an increasing amount of recombinant SEQ ID. NO. 6 in absence or presence of exogenous PCSK9 (FIG. 7a). […] NO. […] Although that SEQ ID. NO. […] NO. […] (Poirier et al., 2009) As PCSK9 was also shown to induce LDLR degradation via an intracellular pathway, (Poirier et al., 2009) we evaluated to ability of SEQ ID. NO. 66 or SEQ ID. NO. 46 to neutralize PCSK9 in HepG2 cells following co-expression (FIG. 7b). Similar to the extracellular pathway (FIGS. 5b and 7a), both SEQ ID. NO. 66 and SEQ ID. NO. […] NO. 66 and specifically SEQ ID. NO. […]

PCSK9-V5 = target: T1, PCSK9-V5 (Homo sapiens, UniProt Q8NBP7); test: Co-immunoprecipitation of GRP94 constructs with PCSK9-V5 in transfected HEK293 cells; type: binding
T1 construct: Full-length human V5-tagged PCSK9 and LDLR were subcloned into pIRES2-EGFP; expressed in transfected cells; host or cells: HEK293
Protocol: FIG. 2: Mapping of the PCSK9-GRP94 interacting domain. (a-b) HEK293 cells were transfected without (−) or with (+) PCSK9-V5 or SEQ ID NO. 66, 64 or 65. A PCSK9 V5 epitope-tag fusion protein (PCSK9-V5) was immune-precipitated from cell lysates using mAb-V5 antibody (IP: V5) and immune-blotted as indicated. Total GRP94 (SEQ. ID. NO. 3) and PCSK9 (SEQ. ID. NO. 1) protein levels were analyzed by immune-blotting in cell lysates (input) and conditioned media. (c) Left panel; HEK293 cells were transfected without (−) or with (+) PCSK9-V5, SEQ. ID. NO. 66 or 46. PCSK9-V5 was immune-precipitated for cell lysates (IP: V5) and immune-blotted (IB) as indicated. Total GRP94 and PCSK9 protein levels were also analyzed by immune-blotting and herein used as a control (input). Right panel; GRP94 homodimer (gray and yellow) crystal structure was determined from PDB file #2O1V using MacPymol software. […] 6 in which critical residues for PCSK9 binding determined in (b) are indicated in blue for SEQ. ID. NO. 64 and red for SEQ. ID. NO. 65. Data are representative of at least three independent experiments.
For identification of novel PCSK9 interactors, HepG2 or Huh-7 cells (55 cm2) were washed three times in phosphate-buffered saline (PBS) and incubated with 1 mM dithiobis[succinimidylpropionate] (DSP; Cat. #22585, Thermo Scientific), a thiol-cleavable cross-linking reagent, for 30 min at room temperature and subsequently switch for 15 min into a stop solution (15 mM Tris, pH 7.5). Cells were then lysed in complete radio-immune precipitation assay (RIPA) buffer (50 mM Tris/HCl, pH 8.0, 1% (v/v) Nonidet P40, 0.5% sodium deoxycholate, 150 mM NaCl and 0.1% (v/v) sodium dodecyl sulfate (SDS)) supplemented with a complete protease inhibitor mixture (Cat. #11 697 498 001, Roche Applied Science), passed 25 times through a 22-gauge needle and centrifuged at 11,000 g for 15 min at 4° C. Supernatants were incubated and rotated overnight with pre-immune serum, rabbit anti-hPCSK9 (amino acids 31-454) (1:250; Dr. Nabil Seidah, Clinical Research Institute of Montreal) or mouse anti-V5-tag (1:500; Cat. #R96025, Life Technologies) together with 50 μl protein A/G PLUS-agarose (Cat. #sc-2003, Santa Cruz). Following overnight incubation, beads were washed six times in RIPA buffer and resuspended in 75 μl Laemmli sample buffer. Co-immunoprecipitated (Co-IP) proteins were separated by 8% SDS-polyacrylamide gel electrophoresis and visualized using the Pierce silver stain kit (Cat. #24600, Thermo Scientific) according the manufacturer's instructions. All other Co-IP experiments were performed as described without the cross-linking step and in SDS-deprived RIPA buffer. HA-tagged proteins and GRP94 were immunoprecipitated with mouse anti-HA-tag (1:500; Cat. #H3663, Sigma-Aldrich) or rat anti-Grp94 (9G10, 1:1000; Cat. #ADI-SPA-850, Enzo Life Sciences).
We next decided to map GRP94 domain(s) important for PCSK9 protein-protein interaction. The overall domain structure of GRP94 includes a signal polypeptide (amino acids; aa1-21) followed by a N-terminal enzymatic ATP-binding domain (aa22-651), client-binding domain (CBD; aa652-678), C-terminal dimerization domain (aa679-799) and a KDEL polypeptide sequence (aa800-803) allowing retention of GRP94 in the endoplasmic reticulum. (Dollins et al., 2007; Maki et al., 1990; Wu et al., 2012) Thus, we first generated cDNA constructs encoding secretable HA-tagged forms of human GRP94 lacking its C-terminal KDEL polypeptide (SEQ ID. NO. 66; FIG. 2). HEK293 cells were transfected without or with SEQ ID. NO. 66 in absence or presence of PCSK9-V5 (FIG. 2a). […] NO. 66 is well expressed (Input; IB: HA) and secreted into media and that SEQ ID. NO. […] It was reported that a 27 aa C-terminal hydrophobic loop structure within GRP94 client-binding domain (CBD, amino acids aa652-678; ^652[…], SEQ ID. NO. 4) was important for folding and interaction with Toll-like receptors and integrins. (Wu et al., 2012) Deletion or alanine-scan mutations in SEQ ID. […]

T1 sequence (Q8NBP7 153-692): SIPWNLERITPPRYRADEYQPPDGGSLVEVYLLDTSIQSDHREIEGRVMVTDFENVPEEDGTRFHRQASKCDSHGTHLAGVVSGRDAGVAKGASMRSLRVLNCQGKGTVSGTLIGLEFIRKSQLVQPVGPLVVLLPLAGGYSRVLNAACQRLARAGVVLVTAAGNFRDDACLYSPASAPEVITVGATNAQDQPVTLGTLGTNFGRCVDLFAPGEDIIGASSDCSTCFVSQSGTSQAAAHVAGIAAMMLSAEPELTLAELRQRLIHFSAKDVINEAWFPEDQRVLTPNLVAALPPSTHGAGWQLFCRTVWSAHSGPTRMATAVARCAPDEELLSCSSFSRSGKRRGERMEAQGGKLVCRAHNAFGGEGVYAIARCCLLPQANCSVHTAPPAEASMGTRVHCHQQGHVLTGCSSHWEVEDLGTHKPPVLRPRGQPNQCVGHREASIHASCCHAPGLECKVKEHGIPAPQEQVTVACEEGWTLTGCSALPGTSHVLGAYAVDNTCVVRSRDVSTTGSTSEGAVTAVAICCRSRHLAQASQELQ
PCSK9 binding to the LDLR EGFA domain, sequence (Q8NBP7 153-692): as above
PCSK9 binding to the LDLR EGFA domain, sequence (Q8NBP7 31-152 partner limits assumed): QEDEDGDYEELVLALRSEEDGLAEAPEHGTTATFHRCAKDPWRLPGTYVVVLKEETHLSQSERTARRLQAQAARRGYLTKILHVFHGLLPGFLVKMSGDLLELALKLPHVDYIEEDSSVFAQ

Molecule: CC(C)C[C@@H](C=O)NC(=O)[C@H](CC(C)C)NC(=O)[C@H](CC(C)C)NC(=O)OCc1ccccc1 [MG132] (Cbz-Leu-Leu-Leu-aldehyde)
- Block of PCSK9-induced LDLR degradation after GRP94 knockdown [1]: not blocked

Molecule: YGWSGNMERIMKAQAYQTGKDISTNYY (YGWSGNMERIMKAQAYQTGKDISTNYY-NH2) [SEQ ID. NO. 4]
- Inhibition of binding of PCSK9 to the LDLR EGFA domain [2]: inhibit binding of PCSK9 to the LDLR EGFA domain
- Inhibition of binding of PCSK9 to the LDLR EGFA domain ([2]; listed as SEQ. ID. NO. 4): inhibits binding of PCSK9 to the LDLR EGFA domain

B1: SEQ ID. NO. 66: secretable HA-tagged form of human GRP94 lacking its C-terminal KDEL sequence (protein)
chain: MRALWVLGLCCVLLTFGSVRADDEVDVDGTVEEDLGKSREGSRTDDEVVQREEEAIQLDGLNASQIRELREKSEKFAFQAEVNRMMKLIINSLYKNKEIFLRELISNASDALDKIRLISLTDENALSGNEELTVKIKCDKEKNLLHVTDTGVGMTREELVKNLGTIAKSGTSEFLNKMTEAQEDGQSTSELIGQFGVGFYSAFLVADKVIVTSKHNNDTQHIWESDSNEFSVIADPRGNTLGRGTTITLVLKEEASDYLELDTIKNLVKKYSQFINFPIYVWSSKTETVEEPMEEEEAAKEEKEESDDEAAVEEEEEEKKPKTKKVEKTVWDWELMNDIKPIWQRPSKEVEEDEYKAFYKSFSKESDDPMAYIHFTAEGEVTFKSILFVPTSAPRGLFDEYGSKKSDYIKLYVRRVFITDDFHDMMPKYLNFVKGVVDSDDLPLNVSRETLQQHKLLKVIRKKLVRKTLDMIKKIADDKYNDTFWKEFGTNIKLGVIEDHSNRTRLAKLLRFQSSHHPTDITSLDQYVERMKEKQDKIYFMAGSSRKEAESSPFVERLLKKGYEVIYLTEPVDEYCIQALPEFDGKRFQNVAKEGVKFDESEKTKESREAVEKEFEPLLNWMKDKALKDKIEKAVVSQRLTESPCALVASQYGWSGNMERIMKAQAYQTGKDISTNYYASQKKTFEINPRHPLIRDMLRRIKEDEDDKTVLDLAVVLFETATLRSGYLLPDTKAYGDRIERMLRLSLNIDPDAKVEEEPEEEPEETAEDTTEDTEQDEDEEMDVGTDEEEETAKESTAEYPYDVPDYA
- Block of LDLR degradation induced by overexpression of PCSK9 [3]: significantly block
- Interaction (binding) with PCSK9 by co-immunoprecipitation (PCSK9-V5): interacts in complex with PCSK9
- Interaction (binding) with PCSK9 by co-immunoprecipitation (PCSK9-V5; listed as SEQ. ID NO. 66): specifically binds to PCSK9
